From patent US20200188479A1, “APPARATUS AND METHODS FOR ADMINISTRATION OF A NAUSEOGENIC COMPOUND FROM A DRUG DELIVERY DEVICE” (INTARCIA THERAPEUTICS, INC., priority 2017, published 2020)
Read-outs that look alike come from different tables or passages of the source.

How the values were obtained:
[1] = cited from earlier work; for half-life in human serum: following subcutaneous administration
[2] = Predicted human plasma concentration profiles of GLP-1 agonists dosed by periodic injection, model fitted to published human pharmacokinetic data; conditions: for peak-trough / peak relative to mean: periodic injection dosed according to prescribers' information; for d[drug]/dt: periodic injection, percent of steady state mean concentration per hour
From the text: Two compartments (SC and Central) are contemplated. A constant fraction of SC drug enters the Central compartment per unit time (defined by Ka). A constant fraction of Central drug is eliminated per unit time (defined by K). Central drug concentration (equal to plasma drug concentration) is an amount of drug in the Central compartment (A) diluted into its volume of distribution (Vd).
Plasma concentrations are each expressed as a fraction of […] plasma concentration i.e., steady state concentration (Css). The predictions are based upon published human pharmacokinetic data, with either raw plasma concentration data or data digitized from published figures for a single subcutaneous dose. The plasma concentrations were fitted to a model describing “absorption+single component decay” for each agent, as depicted in FIG. 13, based upon a rate constant for absorption from a subcutaneous depot into the plasma, and another rate constant for elimination from the plasma compartment. Data were fit using non-linear regression via an iterative least-squares method within Prism v7.0 (GraphPad Software Inc., San Diego, Calif.).
The derived plasma concentration profile for a single subcutaneous bolus was extended from the time of dosing until plasma concentrations were negligible. This profile was serially added to itself, staggered by a period determined by the indicated dose interval, and in a magnitude determined by the recommended dose increases. The numeric sum is shown as the black line in each plot.
(§1) Rate of change of drug concentration, particularly positive rate of change, d[drug]/dt, was derived as the first differential of the plasma concentration profile summed as described above. The d[drug]/dt was expressed with “d[drug]” units reduced to percent of steady state mean concentration of indicated doses, to enable comparisons between agents with differing potencies and pharmacokinetics. The “dt” units were hours. The X-axes in FIGS. 10 and 12 represent the d[drug]/dt thus obtained, in units of “% of steady-state mean (i.e., Css) per hour”.

[3] = patients, cited from earlier work
human GLP-1 receptors = molecular target: T1, human GLP-1 receptors (Homo sapiens, UniProt P43220); assay: Albumin binding assessed by potency shift: cAMP activation of GLP-1 receptors expressed in CHO-K1 cells at different HSA concentrations; assay type: cell-based; conditions: potency decreased with increasing albumin concentration; final HSA 0-4%
T1 construct: expressed in transfected cells; host or cells: CHO-K1 (transient transfection, Lipofectamine 2000)
From the text: EC50 values were converted to pEC50 values using the formula: pEC50=−Log(EC50).

[4] = Estimated d[drug]/dt if administered via single subdermal placement of an osmotic drug delivery device; parameters: species or system human
From the text: as §1

[5] = periodic injection of aqueous solution
[6] = periodic injection (weekly aqueous solution)

T1 sequence (P43220 24-463): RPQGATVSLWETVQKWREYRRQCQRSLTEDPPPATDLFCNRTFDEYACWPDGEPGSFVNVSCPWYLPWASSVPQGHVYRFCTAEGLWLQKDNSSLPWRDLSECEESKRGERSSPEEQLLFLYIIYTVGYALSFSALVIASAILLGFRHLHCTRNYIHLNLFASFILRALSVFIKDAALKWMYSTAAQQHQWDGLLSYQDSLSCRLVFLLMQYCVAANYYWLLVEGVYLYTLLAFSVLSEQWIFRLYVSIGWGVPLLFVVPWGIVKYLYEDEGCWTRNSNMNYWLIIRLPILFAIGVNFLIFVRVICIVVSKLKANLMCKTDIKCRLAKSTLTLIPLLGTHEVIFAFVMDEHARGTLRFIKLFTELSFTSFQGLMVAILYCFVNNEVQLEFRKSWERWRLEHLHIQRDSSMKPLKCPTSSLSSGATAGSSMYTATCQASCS

GLP-1
t1/2 ([1]; peptidase prone GLP-1, by contrast to exenatide): ~3.4 min

albiglutide
peak-trough [2]: 28 % of peak | half-life ([1]; in humans): 140 to 190 h

des-Pro^36-exendin-4(1-39)-Lys6-NH2 [lixisenatide]
peak relative to mean [2]: 2.4 × mean | peak-trough [2]: 97 % of peak | Tmax [2, 5]: ~1.7 h | t1/2 [2, 5]: ~3.0 h | d[drug]/dt [2]: 204 % mean/hour | half-life in human serum [1]: approximately several hours | terminal half-life ([1]; humans, subcutaneous administration): approximately 3 h | nausea ([3]; daily injection, in 24 weeks): 26% | vomiting ([3]; daily injection, in 24 weeks): 11%

dulaglutide
peak-trough [2]: 63 % of peak

semaglutide
albumin (HSA) concentration at mid-range of the potency change (human GLP-1 receptors): ~0.6% | d[drug]/dt, times lower than d[exenatide]/dt [4]: 35 × | Tmax [2, 6]: ~76.8 h | t1/2 [2, 6]: ~199 h | peak relative to mean [2]: 1.12 × mean | peak-trough [2]: 26 % of peak | d[drug]/dt [2]: 3.3 % mean/hour | half-life in human serum [1]: ~165 h | nausea reported ([3]; weekly injection): 22% | withdrawn ([3]; weekly injection): 6%
